Results from US20140057857A1.

Assays:
[1] = target: GST-Mcl-1; assay: competitive FP assay on Mcl-1
[2] = target: GST-Mcl-1; assay: fluorescence polarization assay, labeled peptide on GST-Mcl-1
[3] = target: GST-Bcl-xL; assay: fluorescence polarization assay, labeled peptide on GST-Bcl-xL

Row | IC50 [1] | Kd [2] | Kd [3] | Substance
1 | 160 nM |  |  | Ubiquitin-Noxa fusion protein
2 |  | 2.5 nM | 1.4 nM | Bim (fluorescein-labeled Bim peptide)
3 |  | 127 nM | 14 nM | Bak (fluorescein-labeled Bak peptide)
